Experimental findings from patent US20060205646A1 are described below.

The assay has as its target MMPs in infected porcine wound fluid. In words: cell-based or functional assay.

With “γ-D-crystallin (from UniProt P07320 2-174)”, the inhibition of MMP activity (Fluorogenic Peptide Substrate I), 0.4 mg/mL γ-D-crystallin is 50%.
